According to patent publication US8889620B2, “Pharmaceutical compositions comprising peptide antagonists of vascular endothelial growth factor” (Children's Medical Center Corporation, priority 1997, dated 2014):
Where no end group is shown, it is not given here.

Target: VEGF165R (Homo sapiens, UniProt O14786)
Experiment: Cross-linking of 125I-VEGF165 to VEGF165R on 231 cells
Format: binding
Design: to 231 cells which express only VEGF165R; endogenous in cells; host or cells: MDA-MB-231 (ATCC)
Details: 15 ug/ml fusion protein, FIG. 4 lane 4
Protocol: FIG. 4. GST-EX 7+8 fusion protein inhibits cross-linking of ^125I-VEGF165 to ^125I-VEGF165R and to KDR/Flk-1. ^125I-VEGF165 (5 ng/ml) was bound to subconfluent cultures of HUVEC (lanes 1 and 2) and MDA-MB-23 1 cells (lanes 3 and 4) in 6-cm dishes. The binding was carried out in the presence (lanes 2 and 4) or the absence (lanes 1 and 3) of 15 ug/ml GST-Ex 7+8. Heparin (1 ug/ml) was added to each dish. At the end of a 2-h incubation, ^125I-VEGF165 was chemically cross-linked to the cell surface. The cells were lysed, and proteins were resolved by 6% SDS-PAGE. The gel was dried and exposed to x-ray film.
Binding and cross-linking experiments using 125I-VEGF165 and 125I-VEGF121 were performed at described previously (Gitay-Goren, et al., J. Biol. Chem., 287, 6003-6096 (1992), Soker, et al., J: Biol. Chem., 271,5761-5767 (1996)). VEGF binding was quantified by measuring the cell-associated radioactivity in a y-counter (Beckman, Gamma 5500). The counts represent the average of three walls. All experiments were repeated at least three times, and similar results were obtained. 125I-VEGF cross-linked complexes were resolved by 6% SDS-PAGE, and the gels were exposed to a phosphor screen and scanned after 24 h by a PhosphorImager (Molecular Dynamics). Subsequently, the gels were exposed to x-ray film.

Chain of VEGF165R (O14786 22-923): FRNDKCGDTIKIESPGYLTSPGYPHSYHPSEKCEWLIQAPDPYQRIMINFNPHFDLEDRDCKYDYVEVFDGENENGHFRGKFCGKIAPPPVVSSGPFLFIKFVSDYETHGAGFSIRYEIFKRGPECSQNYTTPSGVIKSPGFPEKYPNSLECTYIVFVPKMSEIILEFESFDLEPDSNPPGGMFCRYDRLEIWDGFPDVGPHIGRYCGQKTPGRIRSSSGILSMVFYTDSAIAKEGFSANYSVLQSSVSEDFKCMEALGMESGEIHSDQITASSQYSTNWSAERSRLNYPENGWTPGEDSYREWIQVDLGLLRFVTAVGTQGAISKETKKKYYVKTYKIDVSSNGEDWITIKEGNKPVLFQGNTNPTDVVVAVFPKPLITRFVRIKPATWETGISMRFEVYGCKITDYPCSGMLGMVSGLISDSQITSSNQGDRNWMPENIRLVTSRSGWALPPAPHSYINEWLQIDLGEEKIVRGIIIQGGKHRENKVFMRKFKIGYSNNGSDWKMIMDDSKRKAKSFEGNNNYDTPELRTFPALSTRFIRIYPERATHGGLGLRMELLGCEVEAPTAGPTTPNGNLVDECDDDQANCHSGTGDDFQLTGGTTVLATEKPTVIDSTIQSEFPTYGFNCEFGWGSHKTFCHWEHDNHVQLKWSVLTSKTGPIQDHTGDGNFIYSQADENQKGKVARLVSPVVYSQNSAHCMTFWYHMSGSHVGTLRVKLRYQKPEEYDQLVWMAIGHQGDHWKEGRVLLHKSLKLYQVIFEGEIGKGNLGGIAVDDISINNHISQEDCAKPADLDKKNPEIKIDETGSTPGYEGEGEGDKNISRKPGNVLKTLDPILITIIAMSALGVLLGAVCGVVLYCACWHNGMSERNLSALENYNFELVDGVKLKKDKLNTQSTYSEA

## GST-Ex 7+8: GST fusion protein containing the peptide encoded by VEGF165 exons 7 and 8 (PCGPCSERRKHLFVQDPQTCKCSCKNTDSRCKARQLELNERTCRCDKPRR; cysteine pairing not given here; also: GST fusion protein, side of fusion not given here)
  formation of 125I-VEGF165/VEGF165R cross-linked complexes on 231 cells (in words): markedly inhibited
